Measured values from article PMC13185157 (ACS Synthetic Biology, 2026).

Target: T1, GFP (Aequorea victoria GFP, engineered …)
T1 construct: green fluorescent protein expressed from pYTK001; also called green fluorescent protein; source: E. coli DH5α, constitutive expression from pYTK001, in lysate
Assay: flow cytometry on cells; about 1 x 10^6 yeast cells displaying the α-GFP Nb in 20 mM HEPES pH 7.5, 150 mM NaCl, 0.1% BSA, 5 mM maltose; GFP from a bacterial cell lysate (20–30 μL); 15 min at 4 °C; GFP fluorescence, percent of positive cells
Conditions: partners not purified

T1 sequence (P42212 other isoform, or with tags, fused parts or gaps): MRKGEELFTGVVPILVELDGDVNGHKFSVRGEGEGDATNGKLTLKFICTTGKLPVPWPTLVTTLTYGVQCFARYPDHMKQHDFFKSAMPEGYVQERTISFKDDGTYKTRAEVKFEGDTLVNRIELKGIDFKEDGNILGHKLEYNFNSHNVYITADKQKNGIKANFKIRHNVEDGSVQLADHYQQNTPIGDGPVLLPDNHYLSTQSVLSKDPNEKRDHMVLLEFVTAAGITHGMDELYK

Row | percent of cells labelled with GFP [%] | Binder
1 | > 80 | α-GFP Nb displayed as N-terminal fusion to HA-tagged Aga1ΔN181 (VHH, anti-GFP nanobody; Plasmid details in File S1; also called anti-GFP Nanobody; not shown: HA (of the anchor part), internal (between nanobody and anchor), kept; Aga1ΔN181 anchor (Aga1p YNR044W amino acids 182–544), C-terminal, kept) VHH: QVQLVESGGALVQPGGSLRLSCAASGFPVNRYSMRWYRQAPGKEREWVAGMSSAGDRSSYEDSVKGRFTISRDDARNTVYLQMNSLKPEDTAVYYCNVNVGFEYWGQGTQVTVSS
2 | > 80 | α-GFP Nb displayed as N-terminal fusion to MYC-tagged Aga1ΔN181 (VHH, anti-GFP nanobody, as in m2; also called anti-GFP Nanobody; not shown: MYC, internal (between nanobody and anchor), kept; Aga1ΔN181 anchor (Aga1p YNR044W amino acids 182–544), C-terminal, kept) VHH: QVQLVESGGALVQPGGSLRLSCAASGFPVNRYSMRWYRQAPGKEREWVAGMSSAGDRSSYEDSVKGRFTISRDDARNTVYLQMNSLKPEDTAVYYCNVNVGFEYWGQGTQVTVSS
3 | > 80 | α-GFP Nb displayed as N-terminal fusion to 2xFLAG-tagged Aga1ΔN181 (VHH, anti-GFP nanobody, as in m2; also called anti-GFP Nanobody; not shown: 2xFLAG, internal (between nanobody and anchor), kept; Aga1ΔN181 anchor (Aga1p YNR044W amino acids 182–544), C-terminal, kept) VHH: QVQLVESGGALVQPGGSLRLSCAASGFPVNRYSMRWYRQAPGKEREWVAGMSSAGDRSSYEDSVKGRFTISRDDARNTVYLQMNSLKPEDTAVYYCNVNVGFEYWGQGTQVTVSS
4 | > 60 | α-GFP Nb displayed as C-terminal fusion to 2xFLAG-tagged Aga2 (VHH, anti-GFP nanobody, as in m2; Held on the cell by coexpressed Aga1; also called anti-GFP Nanobody; not shown: 2xFLAG, internal (after amino acid 18 of Aga2p, after the signal peptide), kept; Aga2p anchor (YGL032C), N-terminal, kept) VHH: QVQLVESGGALVQPGGSLRLSCAASGFPVNRYSMRWYRQAPGKEREWVAGMSSAGDRSSYEDSVKGRFTISRDDARNTVYLQMNSLKPEDTAVYYCNVNVGFEYWGQGTQVTVSS
5 | > 60 | α-GFP Nb displayed as C-terminal fusion to MYC-tagged Aga2 (VHH, anti-GFP nanobody, as in m2; also called anti-GFP Nanobody; not shown: Aga2p anchor (YGL032C), N-terminal, kept) VHH: QVQLVESGGALVQPGGSLRLSCAASGFPVNRYSMRWYRQAPGKEREWVAGMSSAGDRSSYEDSVKGRFTISRDDARNTVYLQMNSLKPEDTAVYYCNVNVGFEYWGQGTQVTVSS
6 | > 60 | α-GFP Nb displayed as C-terminal fusion to untagged Aga2 (VHH, anti-GFP nanobody, as in m2; also called anti-GFP Nanobody; not shown: Aga2p anchor (YGL032C), N-terminal, kept) VHH: QVQLVESGGALVQPGGSLRLSCAASGFPVNRYSMRWYRQAPGKEREWVAGMSSAGDRSSYEDSVKGRFTISRDDARNTVYLQMNSLKPEDTAVYYCNVNVGFEYWGQGTQVTVSS
7 | > 60 | α-GFP Nb displayed as C-terminal fusion to HA-tagged Aga2 (VHH, anti-GFP nanobody, as in m2; Held on the cell by coexpressed Aga1; also called anti-GFP Nanobody; not shown: HA, internal (after amino acid 18 of Aga2p, after the signal peptide), kept; Aga2p anchor (YGL032C), N-terminal, kept) VHH: QVQLVESGGALVQPGGSLRLSCAASGFPVNRYSMRWYRQAPGKEREWVAGMSSAGDRSSYEDSVKGRFTISRDDARNTVYLQMNSLKPEDTAVYYCNVNVGFEYWGQGTQVTVSS
